Values belong to the sequence of their own block, whether it stands above or below them.
Key:
AncSZ = assay: phosphorylation enrichment, bacterial display (enrichment ratio); higher = better substrate or ligand; peptides without Tyr show the background
EPHB1 = EPHB1 (UniProt P54762); assay: as above
EPHB2 = EPHB2 (UniProt P29323); assay: as above
FGFR1 = FGFR1 (UniProt P11362); assay: as above
FGFR3 = FGFR3 (UniProt P22607); assay: as above
Fer (mouse) = assay: as above
Fes = Fes (UniProt P07332); assay: as above
Fyn = Fyn (UniProt P06241); assay: as above
Hck = Hck (UniProt P08631); assay: as above
Jak2 = Jak2 (UniProt O60674); assay: as above
MERTK = MERTK (UniProt Q12866); assay: as above
c-Abl (mouse) = assay: as above
c-Src = assay: as above
Grb2 SH2 = Grb2 SH2 (UniProt P62993); assay: SH2 binding enrichment of the phosphorylated peptide, bacterial display (enrichment ratio); higher = better substrate or ligand; peptides without Tyr show the background
SHP2-C SH2 = assay: as above
c-Src SH2 = assay: as above
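Wherever SH2 binding enrichment of the phosphorylated peptide, bacterial display is given: peptide library displayed on the E. coli surface as eCPX fusions, selected cells deep-sequenced, score is each peptide's frequency after selection divided by its frequency in the input.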
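Wherever phosphorylation enrichment, bacterial display is given: 11-residue human phosphosite peptides and single-mutation variants displayed on the E. coli surface, counted by deep sequencing, each peptide's frequency after selection divided by its frequency in the unselected input library; frequency after pTyr selection over input frequency; kinase dosed for 20-30% of maximal phosphorylation in three min.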

Sequence of MERTK (Q12866 whole entry, looked up): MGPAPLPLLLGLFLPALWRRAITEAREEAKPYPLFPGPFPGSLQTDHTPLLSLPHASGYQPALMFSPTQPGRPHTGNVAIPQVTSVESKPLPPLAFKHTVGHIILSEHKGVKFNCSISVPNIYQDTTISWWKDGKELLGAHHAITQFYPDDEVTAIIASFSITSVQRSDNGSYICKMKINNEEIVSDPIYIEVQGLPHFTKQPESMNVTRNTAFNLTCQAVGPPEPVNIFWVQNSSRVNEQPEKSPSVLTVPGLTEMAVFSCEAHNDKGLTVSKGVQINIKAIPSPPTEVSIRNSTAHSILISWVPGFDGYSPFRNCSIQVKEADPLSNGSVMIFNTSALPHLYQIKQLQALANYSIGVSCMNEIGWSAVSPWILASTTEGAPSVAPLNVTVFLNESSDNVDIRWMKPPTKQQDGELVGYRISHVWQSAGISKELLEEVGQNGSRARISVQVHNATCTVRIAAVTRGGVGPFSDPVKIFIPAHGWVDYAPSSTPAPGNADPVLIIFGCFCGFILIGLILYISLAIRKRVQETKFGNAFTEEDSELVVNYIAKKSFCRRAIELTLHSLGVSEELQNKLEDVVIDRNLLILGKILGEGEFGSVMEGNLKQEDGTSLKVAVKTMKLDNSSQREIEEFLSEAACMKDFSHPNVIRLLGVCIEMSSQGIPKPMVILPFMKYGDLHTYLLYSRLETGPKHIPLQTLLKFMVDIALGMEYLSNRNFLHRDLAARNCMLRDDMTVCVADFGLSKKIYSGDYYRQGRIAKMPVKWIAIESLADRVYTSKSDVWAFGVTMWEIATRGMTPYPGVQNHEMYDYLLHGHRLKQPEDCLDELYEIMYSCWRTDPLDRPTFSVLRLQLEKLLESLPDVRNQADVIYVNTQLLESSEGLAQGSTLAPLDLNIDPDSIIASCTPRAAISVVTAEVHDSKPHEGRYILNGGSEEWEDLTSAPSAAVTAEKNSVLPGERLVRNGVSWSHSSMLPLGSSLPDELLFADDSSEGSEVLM
Sequence of Fes (P07332 whole entry, looked up): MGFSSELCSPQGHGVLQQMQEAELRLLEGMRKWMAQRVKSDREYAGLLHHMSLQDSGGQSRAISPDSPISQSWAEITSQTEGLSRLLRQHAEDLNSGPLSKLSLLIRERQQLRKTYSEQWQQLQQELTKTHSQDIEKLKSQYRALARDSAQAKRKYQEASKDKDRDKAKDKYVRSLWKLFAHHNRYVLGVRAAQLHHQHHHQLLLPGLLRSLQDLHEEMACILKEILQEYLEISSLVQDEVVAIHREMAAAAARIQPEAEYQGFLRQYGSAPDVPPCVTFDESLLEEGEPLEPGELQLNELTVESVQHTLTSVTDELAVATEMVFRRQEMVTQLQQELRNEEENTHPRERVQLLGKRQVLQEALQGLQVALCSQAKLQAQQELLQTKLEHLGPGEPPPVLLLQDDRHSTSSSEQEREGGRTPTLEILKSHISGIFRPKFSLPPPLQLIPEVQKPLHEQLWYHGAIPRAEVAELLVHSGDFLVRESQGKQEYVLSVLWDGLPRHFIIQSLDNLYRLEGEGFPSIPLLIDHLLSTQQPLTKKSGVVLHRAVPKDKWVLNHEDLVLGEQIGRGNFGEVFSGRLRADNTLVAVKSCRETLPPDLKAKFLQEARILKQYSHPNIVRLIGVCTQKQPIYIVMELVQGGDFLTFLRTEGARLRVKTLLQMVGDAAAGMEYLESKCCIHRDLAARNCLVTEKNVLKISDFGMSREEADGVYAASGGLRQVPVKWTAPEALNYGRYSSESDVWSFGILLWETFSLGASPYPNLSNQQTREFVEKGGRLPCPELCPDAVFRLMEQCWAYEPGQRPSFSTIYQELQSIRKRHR
Sequence of Hck (P08631 whole entry, looked up): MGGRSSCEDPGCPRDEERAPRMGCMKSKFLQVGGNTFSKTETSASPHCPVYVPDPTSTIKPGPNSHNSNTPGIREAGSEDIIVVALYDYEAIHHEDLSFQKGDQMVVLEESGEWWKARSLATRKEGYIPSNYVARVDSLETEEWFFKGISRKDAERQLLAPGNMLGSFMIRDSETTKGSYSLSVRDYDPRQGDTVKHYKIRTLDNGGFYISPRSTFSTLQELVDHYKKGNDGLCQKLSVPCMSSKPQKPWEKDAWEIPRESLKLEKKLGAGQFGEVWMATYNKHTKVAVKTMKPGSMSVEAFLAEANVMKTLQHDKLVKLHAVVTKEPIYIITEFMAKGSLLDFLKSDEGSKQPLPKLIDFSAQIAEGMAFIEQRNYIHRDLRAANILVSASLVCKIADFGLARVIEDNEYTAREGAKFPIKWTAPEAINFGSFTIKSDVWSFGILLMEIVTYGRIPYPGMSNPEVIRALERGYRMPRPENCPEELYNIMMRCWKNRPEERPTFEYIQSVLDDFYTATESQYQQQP
Sequence of Jak2 (O60674 whole entry, looked up): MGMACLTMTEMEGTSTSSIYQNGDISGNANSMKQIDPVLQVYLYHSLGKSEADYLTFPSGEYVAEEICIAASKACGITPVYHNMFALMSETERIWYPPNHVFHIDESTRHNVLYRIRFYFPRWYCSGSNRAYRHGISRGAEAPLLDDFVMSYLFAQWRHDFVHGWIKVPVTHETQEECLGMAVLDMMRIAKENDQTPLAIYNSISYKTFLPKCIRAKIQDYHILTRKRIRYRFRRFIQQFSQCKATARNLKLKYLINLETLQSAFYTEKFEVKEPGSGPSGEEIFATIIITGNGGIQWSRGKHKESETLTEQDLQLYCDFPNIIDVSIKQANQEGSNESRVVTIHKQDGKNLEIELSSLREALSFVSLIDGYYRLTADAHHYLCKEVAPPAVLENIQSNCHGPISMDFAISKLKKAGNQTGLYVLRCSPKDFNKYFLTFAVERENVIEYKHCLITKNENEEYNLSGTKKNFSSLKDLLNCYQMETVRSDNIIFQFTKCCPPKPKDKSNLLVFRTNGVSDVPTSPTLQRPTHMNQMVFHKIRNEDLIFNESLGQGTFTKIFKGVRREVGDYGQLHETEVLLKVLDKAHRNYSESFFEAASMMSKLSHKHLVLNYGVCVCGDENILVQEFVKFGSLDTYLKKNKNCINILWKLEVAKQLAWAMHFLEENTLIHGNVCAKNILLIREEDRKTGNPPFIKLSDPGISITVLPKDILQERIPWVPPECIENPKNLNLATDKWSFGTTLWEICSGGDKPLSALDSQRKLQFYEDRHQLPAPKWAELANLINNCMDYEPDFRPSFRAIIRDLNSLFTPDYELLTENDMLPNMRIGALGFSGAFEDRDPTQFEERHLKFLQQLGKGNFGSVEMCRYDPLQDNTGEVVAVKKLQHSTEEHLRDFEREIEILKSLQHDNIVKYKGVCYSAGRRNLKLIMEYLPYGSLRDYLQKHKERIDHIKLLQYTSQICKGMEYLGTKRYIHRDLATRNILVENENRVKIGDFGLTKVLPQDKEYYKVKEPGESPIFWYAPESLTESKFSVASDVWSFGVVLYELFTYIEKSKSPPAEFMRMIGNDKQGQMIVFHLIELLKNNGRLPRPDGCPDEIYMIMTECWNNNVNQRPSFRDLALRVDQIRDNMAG
Sequence of EPHB2 (P29323 whole entry, looked up): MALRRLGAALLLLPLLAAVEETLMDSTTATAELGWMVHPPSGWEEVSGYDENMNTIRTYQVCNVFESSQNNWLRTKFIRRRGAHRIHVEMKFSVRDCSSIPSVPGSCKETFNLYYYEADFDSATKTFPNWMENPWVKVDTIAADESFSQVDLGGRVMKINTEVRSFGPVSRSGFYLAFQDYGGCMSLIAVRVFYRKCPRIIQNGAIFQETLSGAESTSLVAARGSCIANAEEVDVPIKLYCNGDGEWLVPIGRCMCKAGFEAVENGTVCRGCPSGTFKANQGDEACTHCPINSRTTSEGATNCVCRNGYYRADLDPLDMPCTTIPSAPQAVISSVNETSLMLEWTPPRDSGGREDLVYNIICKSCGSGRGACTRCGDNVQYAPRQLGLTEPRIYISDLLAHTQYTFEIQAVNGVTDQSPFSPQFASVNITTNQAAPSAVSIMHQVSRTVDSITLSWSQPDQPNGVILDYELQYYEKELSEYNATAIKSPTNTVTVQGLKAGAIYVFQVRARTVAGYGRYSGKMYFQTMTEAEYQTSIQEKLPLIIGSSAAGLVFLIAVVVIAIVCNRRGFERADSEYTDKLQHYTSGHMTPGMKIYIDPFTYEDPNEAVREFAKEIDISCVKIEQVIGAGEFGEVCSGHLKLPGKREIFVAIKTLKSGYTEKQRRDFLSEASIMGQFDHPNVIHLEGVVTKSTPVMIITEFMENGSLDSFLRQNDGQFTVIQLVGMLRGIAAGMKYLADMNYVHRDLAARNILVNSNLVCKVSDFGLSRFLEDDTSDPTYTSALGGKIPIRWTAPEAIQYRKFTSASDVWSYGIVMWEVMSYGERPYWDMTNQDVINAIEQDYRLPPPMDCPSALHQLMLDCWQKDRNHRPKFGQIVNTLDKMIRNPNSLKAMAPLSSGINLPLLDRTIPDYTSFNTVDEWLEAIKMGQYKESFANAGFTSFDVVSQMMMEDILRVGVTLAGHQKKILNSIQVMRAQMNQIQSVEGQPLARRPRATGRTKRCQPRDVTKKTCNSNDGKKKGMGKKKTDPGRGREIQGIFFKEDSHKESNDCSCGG
Sequence of Fyn (P06241 whole entry, looked up): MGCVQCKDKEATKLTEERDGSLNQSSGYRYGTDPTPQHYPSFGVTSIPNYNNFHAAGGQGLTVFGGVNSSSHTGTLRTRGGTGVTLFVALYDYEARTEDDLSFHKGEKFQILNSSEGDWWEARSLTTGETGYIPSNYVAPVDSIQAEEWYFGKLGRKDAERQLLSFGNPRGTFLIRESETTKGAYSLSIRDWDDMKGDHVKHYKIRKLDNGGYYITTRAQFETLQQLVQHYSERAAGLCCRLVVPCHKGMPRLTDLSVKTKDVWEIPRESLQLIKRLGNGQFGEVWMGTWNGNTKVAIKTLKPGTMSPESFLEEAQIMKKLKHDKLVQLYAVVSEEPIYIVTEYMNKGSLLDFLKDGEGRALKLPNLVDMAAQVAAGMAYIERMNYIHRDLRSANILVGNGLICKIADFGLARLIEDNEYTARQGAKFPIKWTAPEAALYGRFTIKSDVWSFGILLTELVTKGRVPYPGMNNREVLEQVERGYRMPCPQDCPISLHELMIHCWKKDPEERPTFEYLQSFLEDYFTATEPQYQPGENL

Sequence: PKEQKYSFLQD [GH1_Y68_N73D]
phosphorylation enrichment (AncSZ): 0.948 | phosphorylation enrichment (EPHB1): 0.605 | phosphorylation enrichment (EPHB2): 0.693 | phosphorylation enrichment (FGFR1): 0.597 | phosphorylation enrichment (FGFR3): 0.532 | phosphorylation enrichment (Fer (mouse)): 0.435 | phosphorylation enrichment (Fes): 1.16 | phosphorylation enrichment (Fyn): 0.523 | phosphorylation enrichment (Hck): 0.619 | phosphorylation enrichment (Jak2): 0.809 | phosphorylation enrichment (MERTK): 0.858 | phosphorylation enrichment (c-Abl (mouse)): 1.05 | phosphorylation enrichment (c-Src): 0.628 | SH2 binding enrichment (Grb2 SH2): 0.945 | SH2 binding enrichment (SHP2-C SH2): 0.895 | SH2 binding enrichment (c-Src SH2): 1.15

Sequence: LEIETDRRLLD [KRT12_Y429_Y429D]
phosphorylation enrichment (AncSZ): 2.31 | phosphorylation enrichment (EPHB1): 1.13 | phosphorylation enrichment (EPHB2): 1.03 | phosphorylation enrichment (FGFR1): 1.35 | phosphorylation enrichment (FGFR3): 1.4 | phosphorylation enrichment (Fer (mouse)): 1.06 | phosphorylation enrichment (Fes): 3.18 | phosphorylation enrichment (Fyn): 1.29 | phosphorylation enrichment (Hck): 1.08 | phosphorylation enrichment (Jak2): 2.8 | phosphorylation enrichment (MERTK): 0.93 | phosphorylation enrichment (c-Abl (mouse)): 2.64 | phosphorylation enrichment (c-Src): 1.41 | SH2 binding enrichment (Grb2 SH2): 1 | SH2 binding enrichment (SHP2-C SH2): 1.11 | SH2 binding enrichment (c-Src SH2): 0.538

Sequence: NGSFRYVIISQ [LRP1B_Y1988]
phosphorylation enrichment (AncSZ): 1.12 | phosphorylation enrichment (EPHB1): 0.599 | phosphorylation enrichment (EPHB2): 0.581 | phosphorylation enrichment (FGFR1): 0.603 | phosphorylation enrichment (FGFR3): 0.71 | phosphorylation enrichment (Fer (mouse)): 0.513 | phosphorylation enrichment (Fes): 1.25 | phosphorylation enrichment (Fyn): 0.528 | phosphorylation enrichment (Hck): 0.657 | phosphorylation enrichment (Jak2): 0.958 | phosphorylation enrichment (MERTK): 0.448 | phosphorylation enrichment (c-Abl (mouse)): 0.727 | phosphorylation enrichment (c-Src): 0.422 | SH2 binding enrichment (Grb2 SH2): 1.17 | SH2 binding enrichment (SHP2-C SH2): 5.12 | SH2 binding enrichment (c-Src SH2): 2.17

Sequence: PESIPYRKFTT [NTRK1_Y701_L700P]
phosphorylation enrichment (AncSZ): 0.823 | phosphorylation enrichment (EPHB1): 0.598 | phosphorylation enrichment (EPHB2): 0.668 | phosphorylation enrichment (FGFR1): 0.594 | phosphorylation enrichment (FGFR3): 0.936 | phosphorylation enrichment (Fer (mouse)): 0.353 | phosphorylation enrichment (Fes): 0.917 | phosphorylation enrichment (Fyn): 0.375 | phosphorylation enrichment (Hck): 0.721 | phosphorylation enrichment (Jak2): 0.992 | phosphorylation enrichment (MERTK): 0.86 | phosphorylation enrichment (c-Abl (mouse)): 0.879 | phosphorylation enrichment (c-Src): 0.485 | SH2 binding enrichment (Grb2 SH2): 0.747 | SH2 binding enrichment (SHP2-C SH2): 0.507 | SH2 binding enrichment (c-Src SH2): 0.476

Sequence: FRNSLYAPDFS [FAM92A_Y226_YF]
phosphorylation enrichment (AncSZ): 0.755 | phosphorylation enrichment (EPHB1): 2.04 | phosphorylation enrichment (EPHB2): 1.35 | phosphorylation enrichment (FGFR1): 0.891 | phosphorylation enrichment (FGFR3): 0.743 | phosphorylation enrichment (Fer (mouse)): 0.911 | phosphorylation enrichment (Fes): 0.899 | phosphorylation enrichment (Fyn): 1.02 | phosphorylation enrichment (Hck): 1.23 | phosphorylation enrichment (Jak2): 0.812 | phosphorylation enrichment (MERTK): 8.67 | phosphorylation enrichment (c-Abl (mouse)): 0.563 | phosphorylation enrichment (c-Src): 1.25 | SH2 binding enrichment (Grb2 SH2): 0.674 | SH2 binding enrichment (SHP2-C SH2): 0.736 | SH2 binding enrichment (c-Src SH2): 0.511

More lines, main results first:

SH2 binding enrichment (Grb2 SH2): 0.851 | SH2 binding enrichment (SHP2-C SH2): 0.694 | SH2 binding enrichment (c-Src SH2): 0.555
Sequence: FTYDPYSEEDP [IL2RB_Y387]
phosphorylation enrichment (AncSZ): 1.05 | phosphorylation enrichment (EPHB1): 0.564 | phosphorylation enrichment (EPHB2): 0.581 | phosphorylation enrichment (FGFR1): 0.503 | phosphorylation enrichment (FGFR3): 0.822 | phosphorylation enrichment (Fer (mouse)): 0.475 | phosphorylation enrichment (Fes): 1.15 | phosphorylation enrichment (Fyn): 1.28 | phosphorylation enrichment (Hck): 1.01 | phosphorylation enrichment (Jak2): 0.957 | phosphorylation enrichment (MERTK): 0.389 | phosphorylation enrichment (c-Abl (mouse)): 0.654 | phosphorylation enrichment (c-Src): 1.46

SH2 binding enrichment (Grb2 SH2): 0.691 | SH2 binding enrichment (SHP2-C SH2): 0.546 | SH2 binding enrichment (c-Src SH2): 0.415
Sequence: ALAHKYQGGGG [HBB_Y146_H147Q]
phosphorylation enrichment (AncSZ): 0.824 | phosphorylation enrichment (EPHB1): 0.204 | phosphorylation enrichment (EPHB2): 0.436 | phosphorylation enrichment (FGFR1): 0.476 | phosphorylation enrichment (FGFR3): 0.476 | phosphorylation enrichment (Fer (mouse)): 0.283 | phosphorylation enrichment (Fes): 0.58 | phosphorylation enrichment (Fyn): 0.451 | phosphorylation enrichment (Hck): 0.375 | phosphorylation enrichment (Jak2): 0.527 | phosphorylation enrichment (MERTK): 0.588 | phosphorylation enrichment (c-Abl (mouse)): 0.565 | phosphorylation enrichment (c-Src): 0.491

SH2 binding enrichment (Grb2 SH2): 0.995 | SH2 binding enrichment (SHP2-C SH2): 0.557 | SH2 binding enrichment (c-Src SH2): 0.637
Sequence: LHSDHYSPSGR [TMPRSS12_Y23_Y19H]
phosphorylation enrichment (AncSZ): 1.79 | phosphorylation enrichment (EPHB1): 0.431 | phosphorylation enrichment (EPHB2): 0.672 | phosphorylation enrichment (FGFR1): 0.485 | phosphorylation enrichment (FGFR3): 0.871 | phosphorylation enrichment (Fer (mouse)): 0.746 | phosphorylation enrichment (Fes): 0.585 | phosphorylation enrichment (Fyn): 0.778 | phosphorylation enrichment (Hck): 0.851 | phosphorylation enrichment (Jak2): 0.414 | phosphorylation enrichment (MERTK): 0.617 | phosphorylation enrichment (c-Abl (mouse)): 0.569 | phosphorylation enrichment (c-Src): 0.503
